According to publication PMC2852410, “Shared Active Site Architecture between the Large Subunit of Eukaryotic Primase and DNA Photolyase”:

Legend:
PriL-CTD [1] = target: T1, PriL-CTD (Saccharomyces cerevisiae, UniProt P20457 316-512, del381-383); assay: fluorescence anisotropy; 80 nM DNA; Buffer F: 20 mM HEPES pH 6.8, 150 mM KCl, 1 mM EDTA, 25 C; SPR in buffer F + 0.005% P20, 25 C; details: protein: recombinant, tags: N-terminal His6, removed by TEV
T1 sequence: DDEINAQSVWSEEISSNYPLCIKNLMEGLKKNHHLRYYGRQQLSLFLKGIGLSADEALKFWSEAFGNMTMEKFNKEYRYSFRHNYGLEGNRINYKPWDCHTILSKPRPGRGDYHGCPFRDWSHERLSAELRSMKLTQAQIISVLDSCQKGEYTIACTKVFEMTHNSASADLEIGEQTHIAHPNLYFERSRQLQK

[2] = target: T2, DNA primase large subunit PriL, full length;DNA primase small subunit PriS (Saccharomyces cerevisiae;Saccharomyces …, UniProt P20457;P10363 1-528;1-409, |); assay: fluorescence anisotropy; 20 nM DNA; Buffer F: 20 mM HEPES pH 6.8, 150 mM KCl, 1 mM EDTA, 25 C; SPR in buffer F + 0.005% P20, 25 C; details: protein: recombinant;recombinant; tags: ;; copies: 1;1; label: fluorescein; single strand
T2 sequence 1: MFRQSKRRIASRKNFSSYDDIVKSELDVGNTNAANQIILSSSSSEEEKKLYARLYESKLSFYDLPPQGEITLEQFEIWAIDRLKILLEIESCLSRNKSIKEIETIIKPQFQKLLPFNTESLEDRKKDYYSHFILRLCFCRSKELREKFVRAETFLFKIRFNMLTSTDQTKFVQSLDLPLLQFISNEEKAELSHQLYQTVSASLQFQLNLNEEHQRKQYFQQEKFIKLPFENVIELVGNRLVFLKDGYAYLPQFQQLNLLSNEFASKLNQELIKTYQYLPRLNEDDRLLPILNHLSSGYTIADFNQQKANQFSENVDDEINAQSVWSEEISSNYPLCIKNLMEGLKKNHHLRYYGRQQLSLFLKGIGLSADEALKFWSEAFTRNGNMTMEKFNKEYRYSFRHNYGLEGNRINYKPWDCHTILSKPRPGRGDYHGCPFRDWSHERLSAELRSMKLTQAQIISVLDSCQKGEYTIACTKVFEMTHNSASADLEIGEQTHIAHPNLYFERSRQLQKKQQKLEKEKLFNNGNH
T2 sequence 2: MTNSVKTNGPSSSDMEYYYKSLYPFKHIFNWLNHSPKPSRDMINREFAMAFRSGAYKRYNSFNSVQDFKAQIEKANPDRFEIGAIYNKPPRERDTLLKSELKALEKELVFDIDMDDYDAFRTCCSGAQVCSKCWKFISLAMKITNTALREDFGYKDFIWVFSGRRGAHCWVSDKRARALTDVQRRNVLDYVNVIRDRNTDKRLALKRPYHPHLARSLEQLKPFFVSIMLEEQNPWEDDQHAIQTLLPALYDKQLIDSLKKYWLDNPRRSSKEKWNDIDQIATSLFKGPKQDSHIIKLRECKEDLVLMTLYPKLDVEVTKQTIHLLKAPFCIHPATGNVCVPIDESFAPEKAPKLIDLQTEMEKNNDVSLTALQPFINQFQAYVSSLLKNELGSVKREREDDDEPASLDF

PriL-CTD [3] = target: T1, PriL-CTD; assay: fluorescence anisotropy; Kd similar to the 70 µM of the mixed 20mer; data not shown; Buffer F: 20 mM HEPES pH 6.8, 150 mM KCl, 1 mM EDTA, 25 C; SPR in buffer F + 0.005% P20, 25 C; details: protein: recombinant; tags: N-terminal His6, removed by TEV; label: fluorescein; single strand

B1: dsDNA 20mer (fluorescein) (dsDNA)
DNA 1: GGTGAGAGGAGAATGGAAGT
DNA 2: ACTTCCATTCTCCTCTCACC
**Q.** Which Kd (PriL-CTD [1]; label: 5' fluorescein on S2, the printed complement S1 carries 5' biotin, blunt) does the source give for B1 here?
**A.** 178 ± 1.3 µM

B2: poly(dT) 40mer (ssDNA)
DNA: TTTTTTTTTTTTTTTTTTTTTTTTTTTTTTTTTTTTTTTT
**Q.** How did the Kd [2] turn out when B2 was run?
**A.** 1.7 µM

B3: ssDNA 20mer (fluorescein) (ssDNA)
DNA: GGTGAGAGGAGAATGGAAGT
**Q.** For B3, which Kd (PriL-CTD [1]; label: 5' fluorescein, single strand) is on record?
**A.** 70 ± 0.2 µM

B4: poly(dT) 20mer (ssDNA)
DNA: TTTTTTTTTTTTTTTTTTTT
**Q.** Does B4 bind (PriL-CTD [3])?
**A.** binds
